The values below come from patent US20200171163A1 (Daiichi Sankyo, published 2020).

The chains are these.
B1: H02L02 antibody (antibody, human IgG1, kappa, V domains shown)
VH: EVQLVQSGAEVKKPGASVKVSCKASGYTFTRNFMHWVRQAPGQGLEWMGWIYPGDGETEYNQKFQGRVTITADRSTSTAYMELSSLRSEDTAVYFCARGVYGGFAGGYFDFWGQGTLVTVSS
VL: DIQMTQSPSSLSASVGDRVTITCKASQNIYKNLAWYQQKPGKAPKLLIYDANTLQTGVPSRFSGSGSGSDFTLTISSLQPEDFATYFCQQYYSGWAFGQGTKVEIKR
notes: Humanized IgG1/kappa (hH02 + hL02); also called humanized hG019 antibody H02L02
B2: H04L02 antibody (antibody, human IgG1, kappa, V domains shown)
VH: QVQLVQSGAEVKKPGASVKVSCKASGYTFTRNFMHWIRQAPGQGLEWMGWIYPGDGETEYAQKFQGRVTLTADRSTSTAYMELSSLRSEDTAVYYCARGVYGGFAGGYFDFWGQGTLVTVSS
VL: DIQMTQSPSSLSASVGDRVTITCKASQNIYKNLAWYQQKPGKAPKLLIYDANTLQTGVPSRFSGSGSGSDFTLTISSLQPEDFATYFCQQYYSGWAFGQGTKVEIKR
notes: Humanized IgG1/kappa (hH04 + hL02); also called humanized hG019 antibody H04L02
B3: H02L03 antibody (antibody, human IgG1, kappa, V domains shown)
VH: EVQLVQSGAEVKKPGASVKVSCKASGYTFTRNFMHWVRQAPGQGLEWMGWIYPGDGETEYNQKFQGRVTITADRSTSTAYMELSSLRSEDTAVYFCARGVYGGFAGGYFDFWGQGTLVTVSS
VL: DIQMTQSPSSLSASVGDRVTITCKASQNIYKNLAWYQQKLGEGPKLLIYDANTLQTGVPSRFSGSGSGTDFTLTISSLQPEDFATYYCQQYYSGWAFGQGTKVEIKR
notes: Humanized IgG1/kappa (hH02 + hL03); also called humanized hG019 antibody H02L03
B4: H01L02 antibody (antibody, human IgG1, kappa, V domains shown)
VH: EVQLVQSGAEVKKPGASVKVSCKASGYTFTRNFMHWVRQAPGQGLEWMGWIYPGDGETEYAQKFQGRVTITADTSTSTAYMELSSLRSEDTAVYYCARGVYGGFAGGYFDFWGQGTLVTVSS
VL: DIQMTQSPSSLSASVGDRVTITCKASQNIYKNLAWYQQKPGKAPKLLIYDANTLQTGVPSRFSGSGSGSDFTLTISSLQPEDFATYFCQQYYSGWAFGQGTKVEIKR
notes: Humanized IgG1/kappa (hH01 + hL02); also called humanized hG019 antibody H01L02; labeled H01L02
B5: rG055 antibody (antibody, V domains shown)
VH: EVQLQESGPGLVRPSQSLSLSCSVTDYSITSNYWGWIRRFPGNKMEWMGYITYSGYTSYNPSLQSRISITRDTSKNQFFLQLNSVTAEDTATYYCARSINHGGYSYVVDAWGPGASVTVSS
VL: DVQMTHSPSYLAASPGESVSISCKTSKNISNYLVWYQQKPGEAYKLLIYSGSTLQSGTPSRFSGSGSGTDFTLTIRSLEPEDFGLYFCQQYYEKPFTFGSGTKLEIKR
notes: Rat monoclonal purified from hybridoma; also called rat anti-CDH6 monoclonal antibody clone rG055
B6: rG061 antibody (antibody, V domains shown)
VH: EVQLQESGPGLVKPSQSLSLTCSVTGYSITTYYWGWIRKFPGNKMEWMGYISYSGRTSYNPSLKSRMSITRDASKNQFFLQLNSVTTDDTATYYCARSPINHGGYWYFDFWGPGTMVTVSS
VL: DVQMTQSPSYLAASPGESVSISCKATKSISNYLAWYQQKPGEAYKVLIYSGSTLQSGTPSRFSGSGSGTDFTLTIRSLEPEDFGLYSCQQYYEKPLTFGSGTKLEIKR
notes: Rat monoclonal purified from hybridoma; also called rat anti-CDH6 monoclonal antibody clone rG061
B7: rG019 antibody (antibody, V domains shown)
VH: QVQLQQSGAELVKPGSSVKISCKASGYTFTRNFMHWIKQQPGNGLEWIGWIYCGDGETEYNQKFNGKATLTADRSSSTAYMELSRLTSEDSAVYFCARGVYGGFAGGYFDFWGQGVMVTVSS
VL: DIQMTQSPSLLSASVGDRVTLNCKASQNIYKNLAWYQQKLGEGPKLLIYDANTLQTGIPSRFSGSGSGSDFTLTISSLQPEDVATYFCQQYYSGWAFGGVTNLELKRA
notes: Rat monoclonal purified from hybridoma; also called rat anti-CDH6 monoclonal antibody clone rG019
B8: rG056 antibody (antibody, V domains shown)
VH: EVQLQESGPGLVKPSQSLSLTCSVTDYSITTYFWGWIRKFPGNKMEWMGYMSYRGGTSYNPSLKSRISITRDTSKNQFFLQLNSVTTEDTATYYCARCPNYGGHSLVFDYWGQGVMVTVSS
VL: DVQMTQSPSSLAASPGESVSISCRATKSIGIYLAWYQQKPGKTFKLLIYSGSTLQSGTPSRFSGSGSGTDFTLTIRSLEPEDFGLYFCQQFYENPFTFGSGTKLEIRR
notes: Rat monoclonal purified from hybridoma; also called rat anti-CDH6 monoclonal antibody clone rG056

The target of the first test is T1, human CDH6 (full-length, on cells) (human, UniProt P55285 54-790).
T1 construct: also called hCDH6; full-length hCDH6
T1 sequence: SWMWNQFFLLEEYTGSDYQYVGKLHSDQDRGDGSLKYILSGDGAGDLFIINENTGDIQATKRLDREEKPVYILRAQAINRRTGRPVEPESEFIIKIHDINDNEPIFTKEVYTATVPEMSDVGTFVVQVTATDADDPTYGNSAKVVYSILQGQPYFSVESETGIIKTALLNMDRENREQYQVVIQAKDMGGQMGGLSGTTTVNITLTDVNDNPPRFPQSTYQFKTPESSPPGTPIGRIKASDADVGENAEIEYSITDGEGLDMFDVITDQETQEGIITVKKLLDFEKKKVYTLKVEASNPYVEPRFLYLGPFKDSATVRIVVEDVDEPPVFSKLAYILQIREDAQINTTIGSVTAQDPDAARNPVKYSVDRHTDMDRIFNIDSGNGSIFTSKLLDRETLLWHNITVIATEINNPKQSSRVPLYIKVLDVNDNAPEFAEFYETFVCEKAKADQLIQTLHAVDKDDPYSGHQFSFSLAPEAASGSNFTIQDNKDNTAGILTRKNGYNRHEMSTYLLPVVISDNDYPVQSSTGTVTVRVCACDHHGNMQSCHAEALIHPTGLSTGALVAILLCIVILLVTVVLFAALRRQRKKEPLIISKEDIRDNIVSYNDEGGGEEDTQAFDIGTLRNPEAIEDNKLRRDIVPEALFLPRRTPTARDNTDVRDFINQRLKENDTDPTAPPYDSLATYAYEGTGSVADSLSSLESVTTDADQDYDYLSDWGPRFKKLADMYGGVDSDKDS
In words: competition flow cytometry on 786-O/hCDH6 cells; competitor: Alexa 488-labeled H01L02 at 5 nM; unlabeled antibody varied [lower panel]. How it is done:
Thereafter, the cells were suspended by the addition of labeled NOV0712 or labeled H01L02 (final concentration: 5 nM) and, further, the addition of each of the 4 humanized hG019 antibodies (clone Nos: H01L02, H02L02, H02L03 and H04L02), which had been prepared in Example 5)-5-3, or the anti-CDH6 antibody NOV0712, which had been prepared in Reference Example 1, or human IgG1 (Calbiochem) as a negative control (final concentration: as shown in the abscissa of FIG. 9). The cells were left standing at 4° C. for 1 hour. Thereafter, the cells were washed twice with PBS supplemented with 5% FBS, followed by detection using a flow cytometer (Canto II; BD Biosciences). The data was analyzed using FlowJo (Tree Star, Inc.). The abscissa depicts the final concentration of the added unlabeled antibody, and the ordinate depicts the amount of the antibody bound based on mean fluorescence intensity. When unlabeled NOV0712 is added to cells supplemented with labeled NOV0712, the amount of the labeled antibody bound is decreased by replacement with the unlabeled antibody in an addition concentration-dependent manner because they compete with each other for binding to the same epitope. […] Likewise, when each of the 4 unlabeled humanized hG019 antibodies is added to cells supplemented with labeled H01L02, the amount of the labeled antibody bound is decreased by replacement with the unlabeled antibody in an addition concentration-dependent manner because they compete with each other for binding to the same epitope.
With B1, the “IC50 (read off the curve)” value was about 3 nM.

Turning to B2, the “IC50 (read off the curve)” value was about 10 nM.

For the molecule B3, the “IC50 (read off the curve)” value was about 10 nM.

For B4, the “IC50 (read off the curve)” value was about 5 nM.

A further test concerns the target T2, EC3 deletion mutant of human CDH6 (human, UniProt P55285 54-790).
T2 construct: In p3×FLAG-CMV-9; also called EC3-deleted hCDH6
T2 sequence: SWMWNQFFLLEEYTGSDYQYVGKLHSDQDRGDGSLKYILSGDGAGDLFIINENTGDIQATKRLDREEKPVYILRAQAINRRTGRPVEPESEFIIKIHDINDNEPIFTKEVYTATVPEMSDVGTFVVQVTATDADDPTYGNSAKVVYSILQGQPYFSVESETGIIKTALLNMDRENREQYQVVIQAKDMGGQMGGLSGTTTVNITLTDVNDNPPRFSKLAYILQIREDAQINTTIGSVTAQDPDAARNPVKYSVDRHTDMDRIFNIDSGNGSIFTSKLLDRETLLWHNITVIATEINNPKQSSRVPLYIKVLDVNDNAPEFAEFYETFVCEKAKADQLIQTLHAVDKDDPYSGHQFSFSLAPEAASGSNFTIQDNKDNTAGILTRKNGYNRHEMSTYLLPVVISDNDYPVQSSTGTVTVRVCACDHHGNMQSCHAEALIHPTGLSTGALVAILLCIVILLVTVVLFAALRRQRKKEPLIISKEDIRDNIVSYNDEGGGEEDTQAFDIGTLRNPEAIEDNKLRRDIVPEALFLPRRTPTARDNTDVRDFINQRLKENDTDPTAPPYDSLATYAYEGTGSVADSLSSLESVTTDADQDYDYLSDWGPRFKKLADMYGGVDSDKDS
In words: flow cytometry; 293α cells transfected with EC3-deleted hCDH6 (open) vs untransfected control cells (shaded); anti-rat IgG-FITC. As to the method:
The cells were cultured overnight under conditions of 37° C. and 5% CO₂, and thereafter, a cell suspension was prepared. […] Thereafter, the cells were suspended by the addition of each of the 4 rat anti-CDH6 monoclonal antibodies (clone Nos: rG019, rG055, rG056 and rG061), which had been prepared in Example 1)-7, or rat IgG control (R&D Systems, Inc.) (final concentration: 20 nM). The cells were left standing at 4° C. for 1 hour. The cells were washed twice with PBS supplemented with 5% FBS, and then suspended by the addition of Anti-Rat IgG (whole molecule)-FITC antibody produced in rabbit (Sigma-Aldrich Co. LLC) that had been 50-fold diluted with PBS supplemented with 5% FBS. The cells were left standing at 4° C. for 1 hour. The cells were washed twice with PBS supplemented with 5% FBS, followed by detection using a flow cytometer (Canto II; BD Biosciences). The data was analyzed using FlowJo (Tree Star, Inc.). In the histograms of FIGS. 2-1 to 2-6, the abscissa depicts FITC fluorescence intensity indicating the amount of the antibody bound, and the ordinate depicts cell count. […] Fluorescence intensity is enhanced when the antibody binds to full-length hCDH6 or each EC domain deletion mutant on the surface of cells. The rat IgG control binds to none of the transfected cells.
On to B5, for which the binding result is recorded as “no binding (tested: 20 nM (single concentration))”.

Consider B6, for which the binding result was “no binding (tested: 20 nM (single concentration))”.

As to B7, the binding result was “no binding (tested: 20 nM (single concentration))”.

Take B8: the binding result was “no binding (tested: 20 nM (single concentration))”.
